For two proteins, localisation_or_trafficking and expression_or_secretion results are on record in paper PMC11555622.

A short description of data set [1]: confocal microscopy, polarized MDCK. The conditions noted are these: glycan lost.
Data set [2] in a line: domain-selective surface biotinylation, apical vs basolateral. The conditions noted are these: glycan lost.
Data set [3] in a line: immunoblot of HEK293 lysate. The conditions noted are these: glycan lost. A general note: In western blotting, separated proteins are transferred to a membrane and probed.
A short description of data set [4]: surface biotinylation, amount of DUOX1 at cell surface. The conditions noted are these: glycan lost; control: wild type DUOXA1.
The nature of data set [5]: surface biotinylation, amount of DUOX2 at cell surface. The conditions noted are these: glycan lost; control: wild type DUOXA2.

B1: DUOXA1: N84Q/N109Q/N121Q (protein)
parent chain: MATLGHTFPFYAGPKPTFPMDTTLASIIMIFLTALATFIVILPGIRGKTRLFWLLRVVTSLFIGAAILAVNFSSEWSVGQVSTNTSYKAFSSEWISADIGLQVGLGGVNITLTGTPVQQLNETINYNEEFTWRLGENYAEEYAKALEKGLPDPVLYLAEKFTPRSPCGLYRQYRLAGHYTSAMLWVAFLCWLLANVMLSMPVLVYGGYMLLATGIFQLLALLFFSMATSLTSPCPLHLGASVLHTHHGPAFWITLTTGLLCVLLGLAMAVAHRMQPHRLKAFFNQSVDEDPMLEWSPEEGGLLSPRYRSMADSPKSQDIPLSEASSTKAYCKEAHPKDPDCAL
Consider B1, for which the localisation_or_trafficking result is “changes” in data set [1] (control: wild type DUOXA1), “changes” in data set [2] (control: wild type DUOXA1) and “decreases” in data set [4]. Further, the expression_or_secretion result in data set [3] (control: wild type DUOXA1) is recorded as “no change”.

B2: DUOXA2: N84Q/N109Q/N121Q (protein)
parent chain: MTLWNGVLPFYPQPRHAAGFSVPLLIVILVFLALAASFLLILPGIRGHSRWFWLVRVLLSLFIGAEIVAVHFSAEWFVGTVNTNTSYKAFSAARVTARVRLLVGLEGINITLTGTPVHQLNETIDYNEQFTWRLKENYAAEYANALEKGLPDPVLYLAEKFTPSSPCGLYHQYHLAGHYASATLWVAFCFWLLSNVLLSTPAPLYGGLALLTTGAFALFGVFALASISSVPLCPLRLGSSALTTQYGAAFWVTLATGVLCLFLGGAVVSLQYVRPSALRTLLDQSAKDCSQERGGSPLILGDPLHKQAALPDLKCITTNL
Take B2: the localisation_or_trafficking result in data set [1] (control: wild type DUOXA2) was “no change”; in data set [5], “decreases”; in data set [2] (control: wild type DUOXA2) it was “no change”. The expression_or_secretion entry in data set [3] (control: wild type DUOXA2) is “decreases”.
